Assay results published in patent publication US7262177B2, “Conjugates of glycosylated/galactosylated peptide, bifunctional linker, and nucleotidic monomers/polymers, and related compositions and methods of use” (priority 2000, dated 2007).

Legend:
[1] = Hepatic and systemic toxicity, 4 weekly bolus injections; type: in vivo, CD-1 mice
Experimental: Mice have previously been used as in vivo models for 5FU drug testing in the following manner (Ain et al., J. Surg. Res., 57, 366-372 (1994); Wang et al., Cancer Res., 50, 869s-872s (1990)). The plasma profiles, induced toxicities and pharmacokinetics of 5FU in mice are similar to those observed in humans (Wagner et al., Cancer Res., 46, 1499-1506 (1986)). Both po 1-mer and 5FdU were administered on a clinically relevant regimen of 4 weekly bolus injections via the tail vein (Anfield et al., Cancer, 39, 34-40 (1977)). The starting doses of 10 mg/kg and 15 mg/kg were determined by extrapolation of the in vitro data. One week after each injection, a cohort of animals (6 animals/dose/treatment) was sacrificed. Blood and liver samples were collected from each animal and assayed for hepatic and systemic toxicities. The blood sample analyses included a Superchem panel and a total blood count. The Superchem panel assayed blood levels of glucose, urea nitrogen (BUN), creatinine, total protein, albumin, both conjugated and unconjugated bilirubin, triglycerides, SGOT, SGPT, triglycerides, CPK, alkaline phosphatase, and peripheral blood differentials. Total blood counts were analyzed for hematocrit, as well as both red and white blood cell counts. Liver samples were subjected to histological analysis in order to determine changes in morphology, architecture and increase in necrotic tissue as compared to the controls. Any acute or sustained increases in blood counts or serum components indicative of organ damage in comparison with the untreated control was taken to be indicative of a toxic response. In addition, the weights of each cohort were recorded throughout the treatment period as an indication of their clinical condition.

[2] = molecular target: T1, thymidylate synthase (TS) (Homo sapiens, UniProt P04818); assay: Thymidylate synthase activity in treated TSU cells; type: cell-based; details: TSU carcinoma cells, 1 μM
T1 construct: endogenous in cells; host or cells: Hep G2
Experimental: Thymidylate synthase inhibition results in insufficient thymidylate levels for DNA replication and can lead to intracellular signaling processes that ultimately lead to cell death. The activity of this paramount enzyme was determined based on the methods of Keyomarsi et al. (J. Biol. Chem., 268, 15142-15149 (1993)). Briefly, 10^5 Hep G2 or TSU cells were grown in culture for 48 h and then the medium was made to a concentration of 1 μM with either po 1-mer or unconjugated 5FdU. At regular intervals (24 hrs, 48 hrs, 72 hrs and 96 hrs) after treatment, the medium was removed and replaced with medium containing deoxyuridine/[^3H]-deoxyuridine mixtures. Cells were incubated at 37° C. for 30 min. Cell medium was then removed and precipitated with charcoal. The supernatant was then counted to determine the presence of [^3H]-H2O. The measurable release of [^3H] as [^3H]-H2O from deoxyuridine, 5′-monophosphate (dUMP) substrate reflects thymidylate synthase activity.

[3] = tested on: TSU carcinoma cells; assay: Viability of TSU carcinoma cells; type: cell-based, human; details: TSU carcinoma cells treated with conjugate
[4] = 10 mg/kg weekly, WEEK 6 (treatment stopped for two weeks)

T1 sequence (P04818 2-313 limits assumed): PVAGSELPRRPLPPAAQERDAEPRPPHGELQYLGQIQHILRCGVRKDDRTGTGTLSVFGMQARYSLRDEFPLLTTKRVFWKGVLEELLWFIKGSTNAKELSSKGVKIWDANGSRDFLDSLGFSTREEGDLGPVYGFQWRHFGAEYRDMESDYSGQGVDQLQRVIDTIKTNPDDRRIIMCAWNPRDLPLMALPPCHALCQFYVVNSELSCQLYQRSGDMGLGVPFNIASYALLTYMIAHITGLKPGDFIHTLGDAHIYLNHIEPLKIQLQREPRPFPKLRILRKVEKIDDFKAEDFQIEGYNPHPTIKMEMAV

In the case of `CC(=O)N[C@H]1[C@H](OCCCCCCNC(=O)CC[C@H](NC(=O)CC[C@H](NC(=O)[C@H](Cc2ccc(O)cc2)NC(=O)C2CCC(CN3C(=O)CC(SCCCCCCOP(=O)(O)OC[C@H]4O[C@@H](n5cc(F)c(=O)[nH]c5=O)C[C@@H]4O)C3=O)CC2)C(=O)NCCCCCCO[C@@H]2O[C@H](CO)[C@H](O)[C@H](O)[C@H]2NC(C)=O)C(=O)NCCCCCCO[C@@H]2O[C@H](CO)[C@H](O)[C@H](O)[C@H]2NC(C)=O)O[C@H](CO)[C@H](O)[C@@H]1O` (some centres unmarked) [po 1-mer, YEE(ahGalNAc)3-SMCC-poFU], the “histological analysis of liver” value ([1]; 10 mg/kg weekly) is reported as “mild hepatocellular swelling”, the “increased total bilirubin and gamma-glutamyl transferase (GT) levels” value ([1]; 10 mg/kg weekly) is reported as “not observed” and the lactate dehydrogenase levels ([1]; 10 mg/kg weekly) is reported as “increased”. The BUN ([1]; 10 mg/kg weekly, WEEK 1) was 24.66 mg/dL, the Calcium ([1]; 10 mg/kg weekly, WEEK 1) was 7.56 mg/dL and the Chloride ([1]; 10 mg/kg weekly, WEEK 1) was 106.33 meq/l. It also gave an MCH ([1]; 10 mg/kg weekly, WEEK 1) of 17.2 pg, an MCV ([1]; 10 mg/kg weekly, WEEK 1) of 51.5 fL and a Potassium ([1]; 10 mg/kg weekly, WEEK 1) of 11.63 meq/l. For the same molecule, the SGOT ([1]; 10 mg/kg weekly, WEEK 1) was 335.5 u/l, the SGPT ([1]; 10 mg/kg weekly, WEEK 1) was 46.5 u/l and the Sodium ([1]; 10 mg/kg weekly, WEEK 1) was 155.6 meq/l. For the same molecule, the WBC ([1]; 10 mg/kg weekly, WEEK 1) was 4.86 thds/cmm, the BUN ([1]; 10 mg/kg weekly, WEEK 2) was 18 mg/dL and the Calcium ([1]; 10 mg/kg weekly, WEEK 2) was 7.75 mg/dL. The Chloride ([1]; 10 mg/kg weekly, WEEK 2) was 95 meq/l, the MCH ([1]; 10 mg/kg weekly, WEEK 2) was 15.6 pg and the MCV ([1]; 10 mg/kg weekly, WEEK 2) was 51 fL. It also gave a Potassium ([1]; 10 mg/kg weekly, WEEK 2) of 11.1 meq/l, an SGOT ([1]; 10 mg/kg weekly, WEEK 2) of 911.33 u/l and an SGPT ([1]; 10 mg/kg weekly, WEEK 2) of 110 u/l. For the same molecule, the Sodium ([1]; 10 mg/kg weekly, WEEK 2) was 142.5 meq/l, the WBC ([1]; 10 mg/kg weekly, WEEK 2) was 3.16 thds/cmm and the BUN ([1]; 10 mg/kg weekly, WEEK 3) was 22 mg/dL. It also gave a Calcium ([1]; 10 mg/kg weekly, WEEK 3) of 8.85 mg/dL, a Chloride ([1]; 10 mg/kg weekly, WEEK 3) of 87.5 meq/l and an MCH ([1]; 10 mg/kg weekly, WEEK 3) of 16.56 pg. The MCV ([1]; 10 mg/kg weekly, WEEK 3) was 56 fL, the Potassium ([1]; 10 mg/kg weekly, WEEK 3) was 8.9 meq/l and the SGOT ([1]; 10 mg/kg weekly, WEEK 3) was 1174 u/l. For the same molecule, the SGPT ([1]; 10 mg/kg weekly, WEEK 3) was 177 u/l, the Sodium ([1]; 10 mg/kg weekly, WEEK 3) was 152.5 meq/l and the WBC ([1]; 10 mg/kg weekly, WEEK 3) was 2.8 thds/cmm. The BUN ([1]; 10 mg/kg weekly, WEEK 4) was 21.33 mg/dL, the Calcium ([1]; 10 mg/kg weekly, WEEK 4) was 6.5 mg/dL and the Chloride ([1]; 10 mg/kg weekly, WEEK 4) was 86.66 meq/l. The MCH ([1]; 10 mg/kg weekly, WEEK 4) was 16.42 pg, the MCV ([1]; 10 mg/kg weekly, WEEK 4) was 52.83 fL and the Potassium ([1]; 10 mg/kg weekly, WEEK 4) was 12.46 meq/l. The SGOT ([1]; 10 mg/kg weekly, WEEK 4) was 1549.5 u/l, the SGPT ([1]; 10 mg/kg weekly, WEEK 4) was 125.66 u/l and the Sodium ([1]; 10 mg/kg weekly, WEEK 4) was 161.6 meq/l. For the same molecule, the WBC ([1]; 10 mg/kg weekly, WEEK 4) was 1.83 thds/cmm, the BUN [1, 4] was 22.44 mg/dL and the Calcium [1, 4] was 7.7 mg/dL. It also gave a Chloride [1, 4] of 89.72 meq/l, an MCH [1, 4] of 16.1 pg and an MCV [1, 4] of 51.18 fL. The Potassium [1, 4] was 10.82 meq/l, the SGOT [1, 4] was 1211.61 u/l and the SGPT [1, 4] was 137.55 u/l. For the same molecule, the Sodium [1, 4] was 162.22 meq/l, the WBC [1, 4] was 3.03 thds/cmm and the weight gain ([1]; 10 mg/kg weekly, four week period) was “progressive and similar to the saline-treated control mice”. For the same molecule, the “complete blood count: platelets” value ([1]; 15 mg/kg weekly) was “mild thrombocytopenia”, the “histological analysis of liver” value ([1]; 15 mg/kg weekly) was “mild hepatocellular swelling and limited subcapsular fibrosis in one mouse” and the “increased total bilirubin and gamma-GT levels” value ([1]; 15 mg/kg weekly) was “not observed”. The lactate dehydrogenase levels ([1]; 15 mg/kg weekly) was “increased”, the weight gain ([1]; 15 mg/kg weekly) was “somewhat less than the untreated control mice” and the BUN ([1]; 15 mg/kg weekly, WEEK 1) was 26 mg/dL. For the same molecule, the Calcium ([1]; 15 mg/kg weekly, WEEK 1) was 9.15 mg/dL, the Chloride ([1]; 15 mg/kg weekly, WEEK 1) was 101.33 meq/l and the MCH ([1]; 15 mg/kg weekly, WEEK 1) was 16.83 pg. The MCV ([1]; 15 mg/kg weekly, WEEK 1) was 50 fL, the Potassium ([1]; 15 mg/kg weekly, WEEK 1) was 8.9 meq/l and the SGOT ([1]; 15 mg/kg weekly, WEEK 1) was 730 u/l. The SGPT ([1]; 15 mg/kg weekly, WEEK 1) was 67.5 u/l, the Sodium ([1]; 15 mg/kg weekly, WEEK 1) was 154.5 meq/l and the WBC ([1]; 15 mg/kg weekly, WEEK 1) was 2 thds/cmm. For the same molecule, the BUN ([1]; 15 mg/kg weekly, WEEK 3) was 22 mg/dL, the Calcium ([1]; 15 mg/kg weekly, WEEK 3) was 7.73 mg/dL and the Chloride ([1]; 15 mg/kg weekly, WEEK 3) was 87.5 meq/l. The MCH ([1]; 15 mg/kg weekly, WEEK 3) was 16.56 pg, the MCV ([1]; 15 mg/kg weekly, WEEK 3) was 56.556 fL and the Potassium ([1]; 15 mg/kg weekly, WEEK 3) was 8.7 meq/l. The SGOT ([1]; 15 mg/kg weekly, WEEK 3) was 1194 u/l, the SGPT ([1]; 15 mg/kg weekly, WEEK 3) was 120.3 u/l and the Sodium ([1]; 15 mg/kg weekly, WEEK 3) was 156.5 meq/l. It also gave a WBC ([1]; 15 mg/kg weekly, WEEK 3) of 2.1 thds/cmm, a BUN ([1]; 15 mg/kg weekly, WEEK 4) of 20.33 mg/dL and a Calcium ([1]; 15 mg/kg weekly, WEEK 4) of 6.7 mg/dL. The Chloride ([1]; 15 mg/kg weekly, WEEK 4) was 81.66 meq/l, the MCH ([1]; 15 mg/kg weekly, WEEK 4) was 14.2 pg and the MCV ([1]; 15 mg/kg weekly, WEEK 4) was 51 fL. It also gave a Potassium ([1]; 15 mg/kg weekly, WEEK 4) of 13.46 meq/l, an SGOT ([1]; 15 mg/kg weekly, WEEK 4) of 1669.5 u/l and an SGPT ([1]; 15 mg/kg weekly, WEEK 4) of 123.66 u/l. The Sodium ([1]; 15 mg/kg weekly, WEEK 4) was 165.6 meq/l, the WBC ([1]; 15 mg/kg weekly, WEEK 4) was 1.85 thds/cmm and the overall toxicity ([1]; 10 and 15 mg/kg weekly) was “mild at best”. The “inhibition of TS activity” value [2] was “no inhibitory effect” and the viability of cells [3] was “not affected”.
